What was measured:
[1] = target: eYFP-CP2c WT with SUMO3 conjugation; test: FRET; conditions: in vitro; eYFP-CP2c conjugated with SUMO3 (lane 12); n = 3; parent: est. 13; read off a plot
[2] = target: eYFP-CP2c WT with SUMO2 conjugation; test: FRET; conditions: in vitro, n = 3, parent: est. 13, read off a plot
[3] = target: eYFP-CP2c WT with SUMO conjugation (SUMO1), Q9ERA0;P63165; test: FRET; conditions: in vitro; eYFP-CP2c conjugated with SUMO1 (lane 6); n = 3; parent: est. 75; read off a plot
[4] = target: PSME3 WT-dTomato with SUMO2 conjugation, P61289;P61956; test: FRET; conditions: in vitro; PSME3-dTomato conjugated with SUMO2 (lane 7); n = 3; parent: est. 21; read off a plot
[5] = target: PSME3 WT-dTomato with SUMO1 conjugation, P61289;P63165; test: FRET; conditions: in vitro; PSME3-dTomato conjugated with SUMO1 (lane 6); n = 3; parent: est. 55; read off a plot
[6] = target: PSME3 WT-dTomato with SUMO3 conjugation, P61289;P55854; test: FRET; conditions: in vitro; PSME3-dTomato conjugated with SUMO3 (lane 8); n = 3; parent: est. 24; read off a plot
[7] = target: the molecule itself; test: cross-linking + co-IP; DSP XL-IP: live transfected cells crosslinked with 2 mM DSP in PBS 3 hours on ice, lysed, immunoprecipitated, Western blot with or without DTT; cells arrested at G2-M with MG132 (Fig. 4G)

PSME3 WT-dTomato (non-SUMOylated) (from UniProt P61289) K6R; K12R; K14R; K110R; K123R; K243R
response [1]: 7%
response ([2]; eYFP-CP2c conjugated with SUMO2 (lane 11)): 9%

PSME3 WT-dTomato (non-SUMOylated) (from UniProt P61289) SIM m70 (ILLTN→IRRTN) + SIM m115 (LVDII→RKDII)
response [3]: 11%
response ([2]; eYFP-CP2c conjugated with SUMO2 (lane 7)): 16%

eYFP-CP2c WT (non-SUMOylated) (from UniProt Q9ERA0) SIM m158: VGVID→KGKID
response [4]: 9%
response [5]: 7%
response [6]: 12%

B1: Flag-tagged CP2c WT (natural protein, mouse, UniProt Q9ERA0 1-502, looked up)
chain: MAWALKLPLADEVIESGLVQDFDASLSGIGQELGAGAYSMSDVLALPIFKQEESSLPPDNENEILPFQYVLCAATSPAVKLHDETLTYLNQGQSYEIRMLDNRKLGELPELNGKLVKSIFRVVFHDRRLQYTEHQQLEGWRWNRPGDRILDIDIPMSVGVIDPRANPTQLNTVEFLWDPSKRTSVFIQVHCISTEFTMRKHGGEKGVPFRVQIDTFKENGNGEYTEHLHSASCQIKVFKPKGADRKQKIDREKMEKRTPHEKEKYQPSYETTILTECSPWPEITYVNNSPSPGFNSSHSSFSLGEGNGSPNHQPEPPPPVTDNLLPTTTPQEAQQWLHRNRFSTFTRLFTNFSGADLLKLTRDDVIQICGPADGIRLFNALKGRMVRPRLTIYVCQESLQLREQQPQPQPQPQKQEDGDSNGTFFVYHAIYLEELTAVELTEKIAQLFSISPHQISQIYKQGPTGIHVVISDEMVQNFQEEACFILDTMEAETSDSYHVILK
notes: CP2c (Tfcp2), mouse cDNA, in pcDNA3-Flag; In cells part of it is SUMO1-conjugated at K50; also called Flag-CP2c; source: 293T, transfected, in lysate
stoichiometry N [7]: 2
